Reference: publication PMC7918695, “TFF1 Induces Aggregation and Reduces Motility of Helicobacter pylori” (International Journal of Molecular Sciences, 2021)

Molecular target: the molecule itself
Assay: non-reducing SDS-PAGE with Western blot; purified hrTFF1 loaded without reducing agents to preserve the disulfide bonds; probed with polyclonal anti-TFF1 antibody

B1: human recombinant protein TFF1 (trefoil factor 1) (natural protein, UniProt P04155 25-84, looked up)
chain: EAQTETCTVAPRERQNCGFPGVTPSQCANKGCCFDDTVRGVPWCFYPNTIDVPPEEECEF
notes: Trefoil factor 1 (TFF1), human, recombinant from the hrTFF1-pIVEX vector; It is probably the mature secreted TFF1 without its signal peptide (surmised); The homodimer is held by disulfide bonds, since it is seen only under non-reducing conditions; also called hrTFF1; hTFF1; source: E. coli BLR (DE3) pLysS, purified (HisTrap HP, Factor Xa digestion, second HisTrap pass)
- stoichiometry N: 2
